According to patent publication US6153408A, “Altered major histocompatibility complex (MHC) determinant and methods of using the determinant” (Institut Pasteur and Institut National de la Sante et de la …, priority 1995, dated 2000):
Values joined by “and” are separate entries in the source; they are usually repeats but may differ in a detail not shown here. Identical values can stand only once.

Key:
HLA-DR3 = HLA-DR3 (Homo sapiens, UniProt P01903+P01911); assay: Direct peptide binding assay: 125I-labeled HLA-DR3 (positive control); details: for binding of peptide to HLA-DR3 positive control (in words): direct assay
HLA-DR3, sequence (P01903 26-254): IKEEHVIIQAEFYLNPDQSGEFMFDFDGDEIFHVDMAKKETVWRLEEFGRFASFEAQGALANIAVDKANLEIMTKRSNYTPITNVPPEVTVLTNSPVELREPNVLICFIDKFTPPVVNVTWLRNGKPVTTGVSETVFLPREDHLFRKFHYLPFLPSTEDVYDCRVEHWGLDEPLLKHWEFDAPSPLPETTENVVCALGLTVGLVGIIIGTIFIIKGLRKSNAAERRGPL
HLA-DR3, sequence (P01911 30-266): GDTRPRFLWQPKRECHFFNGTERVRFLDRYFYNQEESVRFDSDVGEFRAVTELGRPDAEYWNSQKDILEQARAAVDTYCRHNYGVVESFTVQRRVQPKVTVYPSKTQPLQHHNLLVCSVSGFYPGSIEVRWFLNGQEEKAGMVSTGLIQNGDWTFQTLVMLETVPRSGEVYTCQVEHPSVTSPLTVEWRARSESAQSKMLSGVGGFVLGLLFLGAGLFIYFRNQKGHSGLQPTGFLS
Method: (§1) Direct Peptide Binding Assay. Wells of microtiter plates are pretreated with 100 μl 2.5% glutaraldehyde in distilled water for 2 h at 20° C., washed with distilled water, […] buffer, pH 9.6, or in PBS, pH 7.4 or pH 5.0. Remaining free sites are blocked by incubation for 2 h at 20° C. with BSA diluted 1% in PBS containing 0.05% Tween 20 (Tw) and 0.02% sodium azoture. […] After extensive washing, the radioactivity of each well is counted.

SC-K^d -15 [1] = molecular target: T1, SC-K^d -15 (Mus musculus, UniProt P01887+P01902); assay: Direct peptide binding assay: 35S-labeled SC-Kd-15 on plastic-coated peptides; details: for ^35 S-labeled SC-Kd bound to coated peptide: duplicates; for binding of peptide to SC-K^d -15 (in words): direct assay
T1 construct: connecting residue 276 of K^d heavy chain to the first residue of β2 -microglobulin; mature mouse beta2-microglobulin, fused after the spacer (same polypeptide); expressed in transfected cells; host or cells: monkey COS-1 cells, transient
T1 sequence (P01902+P01887 with tags, fused parts or gaps): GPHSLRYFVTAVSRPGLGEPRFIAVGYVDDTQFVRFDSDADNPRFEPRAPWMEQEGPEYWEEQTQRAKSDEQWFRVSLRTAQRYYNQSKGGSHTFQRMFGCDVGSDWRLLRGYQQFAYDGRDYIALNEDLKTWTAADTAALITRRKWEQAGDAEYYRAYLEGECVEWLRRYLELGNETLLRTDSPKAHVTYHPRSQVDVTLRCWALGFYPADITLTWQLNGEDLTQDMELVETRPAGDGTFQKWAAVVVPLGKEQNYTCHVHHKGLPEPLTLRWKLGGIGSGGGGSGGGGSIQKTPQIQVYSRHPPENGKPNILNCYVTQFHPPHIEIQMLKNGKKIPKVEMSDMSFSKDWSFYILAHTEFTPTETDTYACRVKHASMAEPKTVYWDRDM
Method: as §1
COS-1 cells (usually 10^7 cells) were transfected with pSC-K^d -15 DNA, labeled and lysed as above. […] After the final wash in PBS, SC-K^d -15 was eluted from the matrix with an equal volume of 3 M thiocyanate for 10 min on ice. After an overnight dialysis in PBS containing 0.1% NP40, 0.05% Tween and 0.2% BSA, SC-K^d -15 was used in direct binding test as below. Its purity was assessed by SDS-PAGE.
K^d molecules isolated from the spleen of BALB/c mice were then purified and iodinated.

SC-K^d -15 [2] = molecular target: T1, SC-K^d -15; assay: Competition experiment, env 312-327 bound to plastic, 35S-labeled SC-Kd; format: binding; details: Table (B) shows it for SC-Kd and H-2K
HLA-DRw13 = HLA-DRw13 (Homo sapiens, UniProt P01903+P01911); assay: Direct peptide binding assay: 125I-labeled HLA-DRw13 (positive control); details: for binding of peptide to DRw13 positive control (in words): direct assay, printed DR213
HLA-DRw13, sequence (P01903 26-254): as the sequence (P01903 26-254) above
HLA-DRw13, sequence (P01911 30-266): as the sequence (P01911 30-266) above
Method: Direct Peptide Binding Assay. Wells of microtiter plates are pretreated with 100 μl 2.5% glutaraldehyde in distilled water for 2 h at 20° C., washed with distilled water, and coated for 16 h at 4° C. with 100 μl of peptide diluted at 5 μg/ml either in carbonate-bicarbonate buffer, pH 9.6, or in PBS, pH 7.4 or pH 5.0. Remaining free sites are blocked by incubation for 2 h at 20° C. with BSA diluted 1% in PBS containing 0.05% Tween 20 (Tw) and 0.02% sodium azoture. […] After extensive washing, the radioactivity of each well is counted.

H-2K = molecular target: T2, H-2K (Mus musculus, UniProt P01902); assay: Direct peptide binding assay: 125I-labeled conventional Kd from BALB/c spleen
T2 construct: K^d molecules isolated from the spleen of BALB/c mice were then purified and iodinated; from tissue; host or cells: spleen of BALB/c mice
T2 sequence (P01902 22-368): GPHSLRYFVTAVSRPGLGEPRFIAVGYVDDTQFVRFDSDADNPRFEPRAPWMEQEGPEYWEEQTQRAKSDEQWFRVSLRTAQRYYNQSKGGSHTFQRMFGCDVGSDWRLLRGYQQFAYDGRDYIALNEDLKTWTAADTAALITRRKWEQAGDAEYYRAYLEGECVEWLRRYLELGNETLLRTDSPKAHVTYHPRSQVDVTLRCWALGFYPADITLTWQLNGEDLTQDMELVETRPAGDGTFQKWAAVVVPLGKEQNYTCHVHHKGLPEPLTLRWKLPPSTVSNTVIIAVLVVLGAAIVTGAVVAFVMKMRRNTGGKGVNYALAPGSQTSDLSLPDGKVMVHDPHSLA
T2 sequence (P01887 21-119 partner): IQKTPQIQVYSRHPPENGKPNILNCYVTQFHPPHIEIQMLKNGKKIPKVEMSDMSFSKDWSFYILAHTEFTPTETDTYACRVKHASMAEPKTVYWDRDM
Method: Direct Peptide Binding Assay. Wells of microtiter plates are pretreated with 100 μl 2.5% glutaraldehyde in distilled water for 2 h at 20° C., washed with distilled water, and coated for 16 h at 4° C. with 100 μl of peptide diluted at 5 μg/ml either in carbonate-bicarbonate buffer, pH 9.6, or in PBS, pH 7.4 or pH 5.0. Remaining free sites are blocked by incubation for 2 h at 20° C. with BSA diluted 1% in PBS containing 0.05% Tween 20 (Tw) and 0.02% sodium azoture. After washing, purified ^125 I-HLA molecules (100 μl containing 1.5×10^5 cpm, 10^-9 M) diluted in PBS containing 1% BSA, 0.05% Tw, 0.02% sodium azoture, 1 mM PMSF, and 10 μg/ml trypsin inhibitor are added and incubated for 20 h at 20° C. After extensive washing, the radioactivity of each well is counted.
Peptides used in this study are described in Choppin et al. (Choppin, J., Martinon, F., Gomard, E., Bahraoui, E., Connan, F., Bouillot, F., and Levy, J. -P, J. Exp. Med., 1990. 172:889 and references therein), except for HLA-Cw3 and HLA-A24 described in Maryanski, J. Ll, Pala, P., Cerottini, J. -C, and Corradin, G., J. Exp. Med. 1988. 167:1391. Binding assays were performed as described in Choppin, J., Martinon, F., Gomard, E., Bahraoui, E., Connan, F., Bouillot, F., and Levy, J. -P, J. Exp. Med., 1990. 172:889. […]

Sequence | ^125 I-labeled HLA-DR3 bound to coated peptide (HLA-DR3; Table 10 (A), peptide 10 μg/ml, pH 5, input 200000 cpm, first value of cell, duplicates) | binding of peptide to HLA-DR3 positive control (in words) (HLA-DR3) | ^35 S-labeled SC-Kd bound to coated peptide (SC-K^d -15 [1]; Table 10 (A), peptide 10 μg/ml, pH 5, input 10,000 cpm) | binding of peptide to SC-K^d -15 (in words) (SC-K^d -15 [1]) | competition with plastic-bound env 312-327 peptide (in words) (SC-K^d -15 [2]) | ^125 I-labeled HLA-DRw13 bound to coated peptide (HLA-DRw13; Table 10 (A), peptide 10 μg/ml, pH 5, input 200000 cpm, second value of cell, duplicates) | binding of peptide to DRw13 positive control (in words) (HLA-DRw13) | binding of peptide to conventional K^d (in words) (H-2K) | ^35 S-labeled SC-Kd bound to coated peptide (SC-K^d -15 [1]; Table 10 (A), peptide 30 μg/ml, pH 9.6, input 10,000 cpm) | ^35 S-labeled SC-Kd bound to coated peptide (SC-K^d -15 [1]; Table (B), peptide 5 μg/ml, pH 9.6, input 6000 cpm, no coated peptide 228/223)
LFIHFRIGCRHSR [vpr 68-80] | 18582 cpm and 18245 cpm | significant binding | 710 cpm and 621 cpm | significant binding | competed efficiently | 21838 cpm and 20593 cpm | significant binding |  |  | 
IRIQRGPGRAFVTIGK [env 312-327, HIV 1 Env peptide, residues 312-327] |  | significant binding |  | significant binding |  |  | significant binding | found to bind | 750 cpm | 390 cpm
